From patent US20230265185A1 (NATIONAL RESEARCH COUNCIL OF CANADA, published 2023)

T1: hCD22 fragment Bin 6, IVR6 (aa476-575), displayed on yeast cells (human, UniProt P20273 495-594)
T1 construct: range 476-575; Range is counted on the mature ECD, not on the UniProt entry; on P20273 it would be 495-594 (my arithmetic); also called CD22 Sub-Domain 6; not shown: Aga2-HA display fusion partner of vector pPNL6; MYC tag
T1 sequence (looked up): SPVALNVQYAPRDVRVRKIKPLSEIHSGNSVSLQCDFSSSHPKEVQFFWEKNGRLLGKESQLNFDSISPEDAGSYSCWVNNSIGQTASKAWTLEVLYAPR

T2: hCD22 fragment Bin 7, IVR7 (aa561-668), displayed on yeast cells (human, UniProt P20273 580-687)
T2 construct: range 561-668; Range is counted on the mature ECD, not on the UniProt entry; on P20273 it would be 580-687 (my arithmetic); also called CD22 Sub-Domain 7; not shown: Aga2-HA display fusion partner of vector pPNL6; MYC tag
T2 sequence (looked up): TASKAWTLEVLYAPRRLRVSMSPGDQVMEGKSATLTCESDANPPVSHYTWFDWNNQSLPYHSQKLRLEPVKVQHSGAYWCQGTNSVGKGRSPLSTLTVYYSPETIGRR

T3: hCD22 fragment Bin 4, IVR4 (aa303-405), displayed on yeast cells (human, UniProt P20273 322-424)
T3 construct: Range is counted on the mature ECD, not on the UniProt entry; on P20273 it would be 322-424 (my arithmetic); also called CD22 Sub-Domain 4; not shown: Aga2-HA display fusion partner of vector pPNL6; MYC tag
T3 sequence (looked up): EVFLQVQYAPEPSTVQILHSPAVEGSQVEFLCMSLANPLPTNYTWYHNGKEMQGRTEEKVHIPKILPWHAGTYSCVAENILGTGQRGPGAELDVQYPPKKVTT

T4: full-length hCD22-ECD (668aa) displayed on yeast cells (human, UniProt P20273 20-687)
T4 construct: extracellular domain; Yeast surface display fusion Aga2-HA-(insert)-MYC; also called Bin 8; CD22-ECD Full lenght; not shown: Aga2-HA display fusion partner of vector pPNL6; MYC tag
T4 sequence (looked up): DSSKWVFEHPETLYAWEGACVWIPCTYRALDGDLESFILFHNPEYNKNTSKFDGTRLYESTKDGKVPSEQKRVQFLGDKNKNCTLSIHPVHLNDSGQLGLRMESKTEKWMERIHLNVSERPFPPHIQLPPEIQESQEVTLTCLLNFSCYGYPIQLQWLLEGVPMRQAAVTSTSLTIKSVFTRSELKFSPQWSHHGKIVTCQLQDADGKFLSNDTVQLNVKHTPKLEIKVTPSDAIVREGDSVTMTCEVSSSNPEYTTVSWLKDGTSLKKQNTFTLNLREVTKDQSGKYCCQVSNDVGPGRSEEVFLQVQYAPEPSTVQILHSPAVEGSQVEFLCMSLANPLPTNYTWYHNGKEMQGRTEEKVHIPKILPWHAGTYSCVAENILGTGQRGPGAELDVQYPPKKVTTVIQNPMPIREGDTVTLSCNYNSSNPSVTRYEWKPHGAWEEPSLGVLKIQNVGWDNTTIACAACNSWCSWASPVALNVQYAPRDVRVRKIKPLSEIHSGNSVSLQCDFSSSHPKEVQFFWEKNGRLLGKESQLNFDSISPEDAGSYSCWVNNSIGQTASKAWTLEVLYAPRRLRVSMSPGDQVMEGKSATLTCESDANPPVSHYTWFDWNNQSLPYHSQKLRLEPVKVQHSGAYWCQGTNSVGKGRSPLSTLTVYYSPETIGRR


Columns and labels:
[1] = target: T1, hCD22 fragment Bin 6, IVR6 (aa476-575), …; test: yeast display cell ELISA, native cells
Description: (§1) The YSD vector (pPNL6) was from The Pacific Northwest National Laboratory, USA. […] The HRP activity was assayed with substrate TMB (tetramethyl benzidine) according to the manufacture’s conditions and read at OD₄₅₀.
(§2) Table 7 depicts the assessment of the nature of the epitopes of CD22 sdAbs to determine if the epitopes for the sdAbs are continuous (linear) or non-continuous (conformational). […] The binding of each sdAb to native and denatured CD22 fragments was measured as OD₄₅₀, and the ratio of the binding to denatured CD22 to non-denatured CD22 was calculated, with the ratio ≥ 0.5 indicative linear (L), and the ratio < 0.5 indicative of conformational (C) epitopes.

[2] = target: T1, hCD22 fragment Bin 6, IVR6 (aa476-575), …; test: yeast display cell ELISA, biotinylated sdAb 250 nM
Description: as §1
(§3) The wells that gave rise to OD₄₅₀ above 0.25 were highlighted, indicating significant antibody-antigen interactions. All the sdAbs tested except hCd22_1ug-14 were assigned to specific Bin(s).

[3] = target: T1, hCD22 fragment Bin 6, IVR6 (aa476-575), …; test: yeast display cell ELISA, OD on denatured over non-denatured CD22 fragment
Description: as §1, §2

[4] = target: T2, hCD22 fragment Bin 7, IVR7 (aa561-668), …; test: yeast display cell ELISA, native cells
Description: as §1, §2

[5] = target: T2, hCD22 fragment Bin 7, IVR7 (aa561-668), …; test: yeast display cell ELISA, biotinylated sdAb 250 nM
Description: as §1, §3

[6] = target: T2, hCD22 fragment Bin 7, IVR7 (aa561-668), …; test: yeast display cell ELISA, heat denatured cells (80 C, 30 min)
Description: as §1, §2

[7] = target: T2, hCD22 fragment Bin 7, IVR7 (aa561-668), …; test: yeast display cell ELISA, OD on denatured over non-denatured CD22 fragment
Description: as §1, §2

[8] = target: T1, hCD22 fragment Bin 6, IVR6 (aa476-575), …; test: yeast display cell ELISA
Description: as §1, §3

[9] = target: T2, hCD22 fragment Bin 7, IVR7 (aa561-668), …; test: yeast display cell ELISA
Description: as §1, §3

[10] = target: T3, hCD22 fragment Bin 4, IVR4 (aa303-405), …; test: yeast display cell ELISA, heat denatured cells (80 C, 30 min)
Description: as §1, §2

[11] = target: T4, full-length hCD22-ECD (668aa) displayed …; test: as above
Description: as §1, §2

Binder | Non denatured CD22 OD [1] [OD450] | OD450 [2] [OD450] | CD22 Ratio (D/ND) [3] | Non denatured CD22 OD [4] [OD450] | OD450 [5] [OD450] | Heat Inactivated CD22 OD [6] [OD450] | CD22 Ratio (D/ND) [7] | binding result [8] | binding result [9] | Heat Inactivated CD22 OD [10] [OD450] | Heat Inactivated CD22 OD [11] [OD450]
hCD221ug-80 (VHH, single biotin at the VHH C-terminal (biotinylation signal sequence), llama VHH, expressed in E. coli TG1, IMAC purified, monomeric SEC fraction; also called VHH # 1; 2-hCD22 1ug-80) VHH: QVQLVESGGGLVQPGGSLRLSCTFSGFTLDYYVMVWFRQAPGKEREAVSCITSDGVTYYADSVKGRFTISRDNAKNTVYLQMNRVKPEDTAVYYCAVDKPFYDGGIQYTCPVDFDSWGQGAQVTVSS | 2.57 | 2.25 | 1.02 | – | – | – | – | – | – | – | –
hCD22pas-24 (VHH, single biotin at the VHH C-terminal (biotinylation signal sequence), llama VHH, expressed in E. coli TG1, IMAC purified, monomeric SEC fraction; also called VHH # 26; 8-hCD22 pas-24) VHH: QVQLVESGGGLVQAGGSLRLSCSASGITSSINSMGWHRQAPGKQRELVASIGRGGSGSTKYADSGKGRFLISRDNNKNILFLEMNSLKPEDTADYYCLEVTTDLSSYWGRGTQVTVSS | – | – | – | 3.5 | 2.89 | 2.11 | 0.603 | – | – | – | –
hCD221ug-10 (VHH, single biotin at the VHH C-terminal (biotinylation signal sequence), llama VHH, expressed in E. coli TG1, IMAC purified, monomeric SEC fraction; also called VHH # 23; 5-hCD22 1ug-10) VHH: QVQLVESGGGLVQAGGSLSVSCTASESTFSIMMGWFRQAPGKQREMVAVINSAGSTNYADSAEGRFTISRDLAKKTVSLQMNSLKPEDTAVYYCYVDGYFGQGTQVTVSS | – | – | – | 3.5 | 0.75 | 0.32 | 0.091 | no binding (tested: OD450 not above 0.25; sdAb 250 nM) | – | – | –
hCD221ug-61 (VHH, single biotin at the VHH C-terminal (biotinylation signal sequence), llama VHH, expressed in E. coli TG1, IMAC purified, monomeric SEC fraction; also called VHH # 14; 3-hCD22 1ug-61) VHH: QVQLVESGGGLVQAGGSLRLSCAASMSSFSQYVMYWYRQAPGKQRELVATITSYSNTNYADSVKGRFTISRDNAKSIAYLQMDSLKPEDTAVYYCNAQYGSTFIRNHWDDWGQGTQVTVSS | – | – | – | 3.5 | 2.84 | 2.33 | 0.665 | no binding (tested: OD450 not above 0.25; sdAb 250 nM) | – | – | –
hCD221ug-36 (VHH, single biotin at the VHH C-terminal (biotinylation signal sequence), llama VHH, expressed in E. coli TG1, IMAC purified, monomeric SEC fraction; also called VHH # 22; 4-hCD22 1ug-36) VHH: EVQLVDSGGGLVQAGGSLRVSCEASGITFSRAAMGWYRQRPGKERERVAVVNSDSSTIYADSVKGRFTISRDNAKNTVYLQMNSLEPEDTAVYYCWSPGFGSYWGQGTQVTVSS | 3.5 | 2.97 | 1 | – | – | – | – | – | no binding (tested: OD450 not above 0.25; sdAb 250 nM) | – | –
hCD221ug-13 (VHH, single biotin at the VHH C-terminal (biotinylation signal sequence), llama VHH, expressed in E. coli TG1, IMAC purified, monomeric SEC fraction; also called VHH # 21; 1-hCD22 1ug-13) VHH: QVQLVESGGGLVQAGDSLRLSCAGSGGSFSSVTMAWFRQAPGKDREFVAAITWSSPSTYYADSVKGRFTISRDNAKNTVYLQMNSLKPEDTAVYYCAGGRTGRGTSADTDEYNYWGQGTQVTVSS | 0.453 | 0.433 | 0.6 | – | – | – | – | – | – | 0.686 | –
hCD22pas-32 (VHH, single biotin at the VHH C-terminal (biotinylation signal sequence), llama VHH, expressed in E. coli TG1, IMAC purified, monomeric SEC fraction; also called VHH # 15; 6-hCD22 pas-32) VHH: QVQLVESGGGLVQAGGSLRLSCAVSGRIFRSYVLGWFRQAPGKERELVARIGWSDTYYADSVKGRFTISRDNAKNTVDLQMNSLKPEDTAVYYCAANSPPYGPQRDEFGYWGQGTQVTVSS | – | – | – | – | – | – | – | – | no binding (tested: OD450 not above 0.25; sdAb 250 nM) | – | 0
hCD22pas-64 (VHH, single biotin at the VHH C-terminal (biotinylation signal sequence), llama VHH, expressed in E. coli TG1, IMAC purified, monomeric SEC fraction; also called VHH # 25; 7-hCD22 pas-64) VHH: QVQLVESGGGLVQAGGSLRLSCAASGSTFSLNTMAWYRQAPGNQREYVAAASSDGYTNYADSVRGRFTISRDNDKNTMYLQMNSLRPEDTAVYYCTWGTGRFADYIYWGQGTQVTVSS | 2.98 | 1.38 | 0.684 | – | – | – | – | – | no binding (tested: OD450 not above 0.25; sdAb 250 nM) | – | –
